Data: PMC7925086

Target: Leishmania RNA virus 1 isolate LRV1-4 major capsid protein (Leishmania RNA virus 1 (isolate LRV1-4, from Leishmania guyanensis strain M5313))
Assay: cryo-EM structure; single-particle reconstruction of purified LRV1 virus-like particles, 0.16 mg/ml, in 20 mM sodium phosphate pH 7.4, 300 mM NaCl, 5 mM beta-mercaptoethanol; icosahedral symmetry; 3.65 Å

Question: With “Leishmania RNA virus 1 isolate LRV1-4 major capsid protein (natural protein)” as the substance, how does the stoichiometry N read?
Answer: 120 copies
